This note sets out measurements from patent US20240400635A1 (Novo Nordisk, published 2024).

Holding throughout (experiment): cell-based or functional assay
Assay [1] addresses T1, human GLP-1 receptor (human, UniProt P43220 24-463).
The target of another assay is FGF receptor/BKL complex (human, UniProt Q86Z14 1-1044).
In assay [2] the target is T1, human GLP-1 receptor. The source holds these as a separate data set.

Some results are limits rather than exact numbers.

Sequence of FGF receptor/BKL complex (Q86Z14 whole entry, one chain of several): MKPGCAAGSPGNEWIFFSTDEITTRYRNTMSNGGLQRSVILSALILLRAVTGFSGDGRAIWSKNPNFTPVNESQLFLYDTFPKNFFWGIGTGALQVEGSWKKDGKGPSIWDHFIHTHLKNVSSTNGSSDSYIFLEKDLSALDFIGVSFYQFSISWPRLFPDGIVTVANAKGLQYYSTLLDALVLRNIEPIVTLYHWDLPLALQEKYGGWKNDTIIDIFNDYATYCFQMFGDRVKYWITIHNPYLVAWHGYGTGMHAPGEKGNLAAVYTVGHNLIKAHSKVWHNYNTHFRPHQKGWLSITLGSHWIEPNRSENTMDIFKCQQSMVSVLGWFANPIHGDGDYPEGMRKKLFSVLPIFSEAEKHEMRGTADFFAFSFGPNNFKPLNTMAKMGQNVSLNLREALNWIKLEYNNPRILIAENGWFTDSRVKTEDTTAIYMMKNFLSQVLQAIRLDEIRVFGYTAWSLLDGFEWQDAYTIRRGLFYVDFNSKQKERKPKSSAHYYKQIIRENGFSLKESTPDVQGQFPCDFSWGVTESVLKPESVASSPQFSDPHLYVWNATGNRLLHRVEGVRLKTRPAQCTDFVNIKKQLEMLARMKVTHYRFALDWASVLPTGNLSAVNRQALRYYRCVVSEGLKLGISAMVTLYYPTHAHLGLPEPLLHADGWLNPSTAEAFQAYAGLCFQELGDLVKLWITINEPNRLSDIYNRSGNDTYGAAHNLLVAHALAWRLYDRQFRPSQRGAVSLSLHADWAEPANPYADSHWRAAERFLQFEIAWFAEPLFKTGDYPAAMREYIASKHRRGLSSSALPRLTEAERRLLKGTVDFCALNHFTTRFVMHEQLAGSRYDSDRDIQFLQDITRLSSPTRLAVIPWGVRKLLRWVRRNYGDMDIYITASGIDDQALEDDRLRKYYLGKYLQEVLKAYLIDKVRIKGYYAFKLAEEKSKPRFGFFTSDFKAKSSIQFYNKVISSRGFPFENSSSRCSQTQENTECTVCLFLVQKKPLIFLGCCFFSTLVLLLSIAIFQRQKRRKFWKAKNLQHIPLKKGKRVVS

B1: S{Beta-26}-[2-[2-[[2-[2-[2-[[2-[2-[2-[[(4S)-4-carboxy-4-(17-carboxyheptadecanoyl-amino)butanoyl]amino]ethoxy]ethoxy]acetyl]amino]ethoxy]ethoxy]acetyl]amino]-eth … (ligand)
chain: HGEGTFTSDVSSYLEEQAACEFIAWLVKGGGGAQPGAQPGAQPGAQPAHPIPDSSPLLQFGGQVRQRYLYTDDAQQTEAHLEIREDGTVGGAADQSPESLLQLKALKPGVIQILGVKTSRFLCQRPDGALYGSLHFDPEACSFRELLLEDGYNVYQSEAHGLPLHLPGQKSPHRDPAPRGPARFLPLPGLPPALPEPPGILAPQPPDVGSSDPLSLVGGSQGRSPSYAS
modifications: Cys26 of the GLP-1 part (GLP-1(7-37) numbering; residue 20 of the chain) S-alkylated with substituent Chem. 7
Consider B1, for which, in the assay with human GLP-1 receptor [1], the “GLP-1R potency loss against Chem. 24, absence of HSA” value was above 10 fold. Moreover, in the assay with FGF receptor/BKL complex, the “FGF1 receptor potency [EC50] nM 0.1% HSA” value worked out at 0.51 nM and the “FGF21 receptor potency [EC50] nM 0% HSA” value was determined as 0.43 nM. Besides, in the assay with human GLP-1 receptor [2], the “GLP-1 receptor potency [EC50] pM 0% HSA” value amounted to 67.4 pM and the “GLP-1 receptor potency [EC50] pM 1% HSA” value is 397 pM.
